The values below come from the nanobody polyreactivity screen of Harvey et al. (2022).

The nature of this series: yeast display, Sf9 membrane polyspecificity reagent, FACS + sequencing; frameworks hold sequencing errors. In short, it runs like this:
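Sorting gates, low and high (top ~1%), were placed on anti-HA fluorescence to track expression and on streptavidin fluorescence to track reagent binding. A clone's polyreactivity label is taken from the gate it came out of. The reagent was 10% biotinylated, detergent-solubilized Sf9 membrane, applied for 1 hour at 4 °C to galactose-induced yeast display cells.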
For “QVQLVESGGGLVQAGGSLRLSCADSGSIFGPYAMGWYRQAPGKEREFVAAISRSGTRTNYADSVKGRFTISRDNAKNTVYLQMNSLKPEDTAVYYCNARYVSASRNRGKSRYDYWGLGTQVTVSS”, the “polyreactivity (PSR sort gate)” value is “high polyreactivity”.
Turning to “QVQLVESGGGLVQAGGSLRLSCADSGSIFLIYAMGWYRQAPGKERELVATINRGDNTYYADSVKGRFTISRDNAKITVYLQMYSLKPEDTADGYWGQGTQVTGSS”, the “polyreactivity (PSR sort gate)” value is given as “low polyreactivity”.
The same measure for “QVQLVESGGGLVQAGGSLRLSCADSGSIFLRYAMGWYRQAPGKERELVAAISCRGGSTYYADSVKGRFTISRDNAKNTVYLQMNSQKPEDTAVYYCAAYRGRSLEYDYWGQGTQVNVSS”: “high polyreactivity”.
For the sequence “QVQLVESGGGLVQAGGSLRLSCADSGSIFTSNGMGWYRHAPGKERELVAAITSGTSTYYADSVKGRFTISRDNAKNTVYLQMNSLKPEDTAVYYCAAGRWWVYRYARYYYWGQGTQVTVSS”, the “polyreactivity (PSR sort gate)” value is “high polyreactivity”.
Turning to “QVQLVESGGGLVQAGGSLRLSCADSGSIFVAYAMRWYRPAPGKERELVAAISSSGGTTYYADSVKGRFTISRDNAKNTVYLQMNSLKPEDTAVYYSAARDYKYYYWGQGTQVTVSS”, the “polyreactivity (PSR sort gate)” value was “high polyreactivity”.
Regarding “QVQLVESGGGLVQAGGSLRLSCADSGSIFYVYAMGWYRQAPGKERELVATISSSAGSTYYADSVKGRFTISRDNAKNTVYLQMNSLKPEDTAVYYCNADSFLSWVYRYVYYGSGYWGQGTQVTVSS”, the “polyreactivity (PSR sort gate)” value is “low polyreactivity”.
Regarding “QVQLVESGGGLVQAGGSLRLSCADSGSILIYNAMGWYRQAPGKERELVAGISRRGASTYYADSVKGRFTISRDNAKNTVSLQMNSLKQEDTAVYYCAALGKYIVAWSGDYWGQGTQVTVSS”, the “polyreactivity (PSR sort gate)” value was “low polyreactivity”.
For “QVQLVESGGGLVQAGGSLRLSCADSGSTFDSYAMGWYRQAPGKERELVASITSRGGRTYYADSVKGRFTISRDNAKNTVYLQMNSLKPEDTALYYCNAYRRNYYYYQRHGYWGQGTQVTVSS”, the “polyreactivity (PSR sort gate)” value was “high polyreactivity”.
Turning to “QVQLVESGGGLVQAGGSLRLSCADSGSTFGFYAMGWYRKAPGKERELVAAISSSGSTYYADSVKGRFTISRDNAKNTVYLQMNILKPEDTAFYSCGAHPGYYDYDYWGQGTQVTVSS”, the “polyreactivity (PSR sort gate)” value is given as “low polyreactivity”.
The same measure for “QVQLVESGGGLVQAGGSLRLSCADSGSTFGLYAMGGYRQSPGKEREMVAAITWGGGSTYYADSVKVRFTISRDNAKNTVYFQMNSLKPEDTAVYYCAASPIYPVYRRHGYWGQGTQVTVSW”: “high polyreactivity”; for “QVQLVESGGGLVQAGGSLRLSCADSGSTFLYYAIVWYRQAPGKERELVASITGSGSNTYYADSVKGRFTISRDNAKNTVYLQMNSLKPEDTAVYYCASDPQSDIPSWLWYWGEYDYWGQGTQVTVSS”: “low polyreactivity”.
As to “QVQLVESGGGLVQAGGSLRLSCADSGSTFNIYAMGWYRQAPGKERELVAAISSGGTTYYADSVKGRFTISRDNAKNTVYLQMNSLKPEDTAVYYCAALTSSLPAYGYWGQGTQVTVSS”, the “polyreactivity (PSR sort gate)” value was “low polyreactivity”.
With “QVQLVESGGGLVQAGGSLRLSCADSGSTFPYYTMGWYRQAPGKEREFVAAISRSTGRTSYADSVKGRFTISRDNAKNTVYLQMNSVKPEDSAVYDCAVRWYYYRDDTIYVLGRYDYWGQGTQVSVSS”, the “polyreactivity (PSR sort gate)” value is “high polyreactivity”.
“QVQLVESGGGLVQAGGSLRLSCADSGSTFYRNAMGWYRQAPGKERELVASINNRGSTYYADSVKGRFTISRDNAKNTVYLQMNRLKPEDTAVYYFAATESWDYDYWGQGTQVTVSS”: the “polyreactivity (PSR sort gate)” value is reported as “low polyreactivity”.
“QVQLVESGGGLVQAGGSLRLSCADSGSTIFGNAMGWYRQAPGKERELVAAISYSGDSTYYADSVKGRFTISRDNAMNTVYLQMNSLKPEDTAVYYCAAGFVIKYDFWGQGTQVTVSS”: the “polyreactivity (PSR sort gate)” value is listed as “low polyreactivity”.
Take “QVQLVESGGGLVQAGGSLRLSCADSGSTLRRNAMGWYRQAPGKERELVAAISRTGASTYYADSVKGRFTISRDNAKNTVYLQMNSLKPEDTAVYYCAARANYIFFGMDYWGQGTQVTVSS”: the “polyreactivity (PSR sort gate)” value is recorded as “high polyreactivity”.
With “QVQLVESGGGLVQAGGSLRLSCADSGSTLYRYAMGWYRQAPGKERELVDAISSAGSTHYADSVKGRFTISRDNAKNTVYLQMNSLKPEDTAVYYCNAVRKTFDYNYWGQGTQVTVSS”, the “polyreactivity (PSR sort gate)” value is listed as “high polyreactivity”.
The value for “QVQLVESGGGLVQAGGSLRLSCADSVSIFRVNAKRWYTQAPGKERELVAGISSRGGTSTYYADSVKGRFTISRDNAKNTVYLQMNSLKPEDTAVYYCNKTDITTSRHDYWRQGTQVTVSS” was “low polyreactivity”; that for “QVQLVESGGGLVQAGGSLRLSCADSVSTFQPNAMGSYRQAPGKERELVAAISRGGSTKYAYSVKGRITISRDSAKNTVYLQMNSLKPEDTAVYYRAVVFYRHVGYSGYYYWGQGTQVTVSS” was “low polyreactivity”; that for “QVQLVESGGGLVQAGGSLRLSCAESGLTFWDYVMGWYRQAPGKEMELVAAISDSGGDTYYADSVKGRFTISRDNAKNTVYLQMNSLKPEDTAVYYCAAEYAEYVLEYYRLYEYWGQGTQVTVSS” was “high polyreactivity”.
Take “QVQLVESGGGLVQAGGSLRLSCAEYDMGWYRQAPGKERELVATITARGGSTYADSVKGRFTISRDNAKNTVYLQMNSLKPEDTAVYYCAADRFFWLRSYPRYYYWGQGTQVTVSS”: the “polyreactivity (PSR sort gate)” value is “low polyreactivity”.
As for “QVQLVESGGGLVQAGGSLRLSCAGSGFSFPNNGMGGYRQAPGKERELVAAIRSSGGSTYYADSVKGRFTISRDNAKNTVYLQMNSLKPEDTAVYYCNARRRGGYVGRPRYPVAAYDYWGQGTQVTVSS”, the “polyreactivity (PSR sort gate)” value was “low polyreactivity”.
The same measure for “QVQLVESGGGLVQAGGSLRLSCAGSGIIFHLYAMGWYRQAPGKERELVAAISWNGSSTYYADSVKGRFTISRDNAKNTVYLQMNSLKPEDTAVYYCAASYGYFEDYGYWGQGTQVTVSS”: “low polyreactivity”.
Turning to “QVQLVESGGGLVQAGGSLRLSCAGSGRIFGGYAMGWYRQAPGTERELVAAISRRGGSTYYADSVKGRFTISRDNAKNTVYLQMNSLKPEDTAVYYCARDYGGVGAPGSAGAYDYWGQGTQVTVSS”, the “polyreactivity (PSR sort gate)” value is “high polyreactivity”.
“QVQLVESGGGLVQAGGSLRLSCAGSGRIFSENAMGWYRQAPGKERELVAAISVSGGSTYYADSVKGRFTISRDNAKNTVYLQMNSLKPEDTAVYYCAAEYLAYYSGYDYWGQGTQVTVSS”: the “polyreactivity (PSR sort gate)” value is reported as “high polyreactivity”.
As for “QVQLVESGGGLVQAGGSLRLSCAGSGSIFYQYAMGWYRQAPGKERELVAAISDSGGSTHYADSVKGRFTISRDNAKNTVYLQMNSLKPEDTAVYYCPANLYYQYGGDYWGQGSQVTVSS”, the “polyreactivity (PSR sort gate)” value was “low polyreactivity”.
With “QVQLVESGGGLVQAGGSLRLSCAGSGSIFYSNAMGWSRPAPGKERELVAAICWNGGRTYYADSVKGRFTISRDNAKNTVYLQMNSLKPEDTAVYYCAAKYRNRYDYWGHGTQVTVSS”, the “polyreactivity (PSR sort gate)” value was “low polyreactivity”.
With “QVQLVESGGGLVQAGGSLRLSCAGSGSTFPRYPMGWYRQAPGKERELVAAISYSGGRTYYADSVKGRFTISRDYAKNTVYLQMNSLKAEDTAVYYCKKRWRGAGTSYDYWGQGTQGTVSS”, the “polyreactivity (PSR sort gate)” value is “high polyreactivity”.
Take “QVQLVESGGGLVQAGGSLRLSCAGSGSTFRSNAMGWYRQAPGKERELVAAISRSGGRTYYADSVKGRFTISRDNAKNTVYLQMNSLKPEDTAVYYCNTVLKRQRKNEYWGQGTQVTVSS”: the “polyreactivity (PSR sort gate)” value was “high polyreactivity”.
“QVQLVESGGGLVQAGGSLRLSCAGSGSTLTWNDMGWYRHAPGKERELVASITQSGDSTYYADSVKGRFTISRDNAKNTVYLQMNSLKPEDTAVYYCSGVYTYPLGYYHYTYDYWGQGTQVTVSS”: the “polyreactivity (PSR sort gate)” value is listed as “low polyreactivity”.
